Laboratory results: patent US20220288223

Experiments:
[1] = system: RACPP with substrate RLQLK(Ac)L
[2] = system: RACPP with substrate YGRAAA
[3] = system: RACPP with substrate TGRAAA
[4] = system: RACPP with substrate PLGC(me)AG
[5] = system: RACPP with substrate GVAYSGA
[6] = system: RACPP with substrate TIAHLA
[7] = system: RACPP with substrate PLGLEEA

Chain of MMP-9 (chain, as listed by the source): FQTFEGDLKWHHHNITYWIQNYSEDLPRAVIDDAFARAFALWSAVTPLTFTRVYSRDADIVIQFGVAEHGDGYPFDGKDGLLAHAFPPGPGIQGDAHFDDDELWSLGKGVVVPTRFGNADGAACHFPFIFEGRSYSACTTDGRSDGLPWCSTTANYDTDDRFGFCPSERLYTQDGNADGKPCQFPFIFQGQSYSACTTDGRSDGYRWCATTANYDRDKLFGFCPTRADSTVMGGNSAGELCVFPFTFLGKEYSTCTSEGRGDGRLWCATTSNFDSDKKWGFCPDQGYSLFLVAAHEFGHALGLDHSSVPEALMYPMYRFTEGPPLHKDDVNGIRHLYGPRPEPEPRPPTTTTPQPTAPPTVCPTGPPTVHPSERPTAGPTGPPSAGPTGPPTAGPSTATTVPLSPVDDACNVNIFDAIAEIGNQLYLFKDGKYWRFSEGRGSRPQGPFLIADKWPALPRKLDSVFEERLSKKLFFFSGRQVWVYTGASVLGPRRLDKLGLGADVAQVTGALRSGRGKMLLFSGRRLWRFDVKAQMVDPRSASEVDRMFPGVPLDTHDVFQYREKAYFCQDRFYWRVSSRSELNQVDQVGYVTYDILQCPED

Question: Which results are given for Elastase?
Answer: Kcat/Km [1]: 13400; Kcat/Km [2]: 943; Kcat/Km [3]: 349; Kcat/Km [4]: 4000; Kcat/Km [5]: 4550; Kcat/Km [6]: 18200

Question: MMP-9 was tested. Which Kcat/Km [7] did it give?
Answer: Its Kcat/Km is 1480.

Question: And the Kcat/Km [4]?
Answer: The Kcat/Km was 13500.
